This is an account of results in IntAct's records for PubMed 23917616.

B1: Myotubularin (Homo sapiens), Q13496 (parent)
chain: MASASTSKYNSHSLENESIKRTSRDGVNRDLTEAVPRLPGETLITDKEVIYICPFNGPIKGRVYITNYRLYLRSLETDSSLILDVPLGVISRIEKMGGATSRGENSYGLDITCKDMRNLRFALKQEGHSRRDMFEILTRYAFPLAHSLPLFAFLNEEKFNVDGWTVYNPVEEYRRQGLPNHHWRITFINKCYELCDTYPALLVVPYRASDDDLRRVATFRSRNRIPVLSWIHPENKTVIVRCSQPLVGMSGKRNKDDEKYLDVIRETNKQISKLTIYDARPSVNAVANKATGGGYESDDAYHNAELFFLDIHNIHVMRESLKKVKDIVYPNVEESHWLSSLESTHWLEHIKLVLTGAIQVADKVSSGKSSVLVHCSDGWDRTAQLTSLAMLMLDSFYRSIEGFEILVQKEWISFGHKFASRIGHGDKNHTDADRSPIFLQFIDCVWQMSKQFPTAFEFNEQFLIIILDHLYSCRFGTFLFNCESARERQKVTERTVSLWSLINSNKEKFKNPFYTKEINRVLYPVASMRHLELWVNYYIRWNPRIKQQQPNPVEQRYMELLALRDEYIKRLEELQLANSAKLSDPPTSPSSPSQMMPHVQTHF
partner: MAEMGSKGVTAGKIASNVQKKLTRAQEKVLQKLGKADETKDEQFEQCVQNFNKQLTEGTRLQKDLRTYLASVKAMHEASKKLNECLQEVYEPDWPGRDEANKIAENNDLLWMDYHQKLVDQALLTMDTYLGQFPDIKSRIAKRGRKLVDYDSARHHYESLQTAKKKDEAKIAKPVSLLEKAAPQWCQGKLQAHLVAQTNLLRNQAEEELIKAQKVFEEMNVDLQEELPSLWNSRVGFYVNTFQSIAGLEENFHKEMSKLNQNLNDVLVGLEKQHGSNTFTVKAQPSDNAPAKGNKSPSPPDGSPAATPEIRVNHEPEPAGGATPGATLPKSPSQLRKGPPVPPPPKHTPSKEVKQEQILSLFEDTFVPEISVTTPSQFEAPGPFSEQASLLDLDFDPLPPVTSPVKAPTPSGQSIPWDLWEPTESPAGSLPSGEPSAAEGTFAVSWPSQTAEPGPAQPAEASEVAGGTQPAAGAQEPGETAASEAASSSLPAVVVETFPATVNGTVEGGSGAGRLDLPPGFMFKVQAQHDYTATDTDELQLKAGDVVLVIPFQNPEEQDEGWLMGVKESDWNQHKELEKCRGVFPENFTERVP

In this assay the parent is B1. As to conditions: with bin1_human BIN1, O00499.
Regarding C375S, the “effect of a mutation on the interaction” value is listed as “disrupting interaction”.
